Numbering of substitutions follows the chain as printed. Names may count otherwise. Each block holds one molecule with its values, some of them ahead of it.
Key:
human TNFR2 (human) = human TNFR2 (human) (UniProt P20333); experiment: cell-based or functional assay
human TNFR2 [1] = target: T1, human TNFR2 (human, UniProt P20333 23-461); experiment: binding to human TNFR2 CHO cells, TetraFab format
T1 construct: expressed on the surface of CHO cells; also called HuTNFR2; TNFRSF1B
T1 sequence: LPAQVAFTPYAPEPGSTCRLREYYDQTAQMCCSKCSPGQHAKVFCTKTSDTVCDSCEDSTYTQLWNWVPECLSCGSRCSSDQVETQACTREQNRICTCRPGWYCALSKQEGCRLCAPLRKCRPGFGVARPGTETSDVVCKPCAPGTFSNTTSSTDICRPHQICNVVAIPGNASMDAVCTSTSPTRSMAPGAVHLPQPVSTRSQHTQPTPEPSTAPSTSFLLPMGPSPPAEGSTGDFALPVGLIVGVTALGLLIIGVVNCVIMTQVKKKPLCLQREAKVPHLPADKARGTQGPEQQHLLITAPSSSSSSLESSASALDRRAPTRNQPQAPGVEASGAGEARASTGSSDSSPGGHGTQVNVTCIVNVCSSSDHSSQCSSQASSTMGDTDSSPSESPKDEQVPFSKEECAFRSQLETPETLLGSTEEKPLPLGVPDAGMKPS

human TNFR2 [2] = target: T1, human TNFR2; experiment: binding to human TNFR2 CHO cells
human TNFR2 [3] = target: T2, human TNFR2 (human, UniProt P20333 23-461); experiment: cell-based or functional assay
T2 sequence: T1 sequence

cynomolgus monkey TNFR2 [4] = target: T3, cynomolgus monkey TNFR2 (cynomolgus monkey, UniProt P20333 23-461 (human entry)); experiment: cell-based or functional assay
T3 chain: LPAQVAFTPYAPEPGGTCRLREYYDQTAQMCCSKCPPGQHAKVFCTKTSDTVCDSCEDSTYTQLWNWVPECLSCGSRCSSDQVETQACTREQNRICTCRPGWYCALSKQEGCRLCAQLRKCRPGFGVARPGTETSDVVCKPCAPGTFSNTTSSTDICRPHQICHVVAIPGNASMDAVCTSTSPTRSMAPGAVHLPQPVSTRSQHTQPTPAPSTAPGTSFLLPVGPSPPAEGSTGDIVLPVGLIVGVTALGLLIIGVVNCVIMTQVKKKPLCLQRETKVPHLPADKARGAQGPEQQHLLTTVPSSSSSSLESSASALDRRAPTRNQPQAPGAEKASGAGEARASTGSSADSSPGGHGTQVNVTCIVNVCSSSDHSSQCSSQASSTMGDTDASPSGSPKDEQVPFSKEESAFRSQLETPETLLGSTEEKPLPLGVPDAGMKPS

human TNFR2 [5] = target: T2, human TNFR2; experiment: cell-based or functional assay; remark: listed apart in the source
human TNFR2 [6] = target: T2, human TNFR2; experiment: cell-based or functional assay; remark: listed apart in the source
cynomolgus monkey TNFR2 [7] = target: T3, cynomolgus monkey TNFR2; experiment: cell-based or functional assay
human TNFR2 [8] = target: T2, human TNFR2; experiment: binding to human TNFR2 CHO cells
biotinylated human TNFR2 = target: T4, biotinylated human TNFR2 (human, UniProt P20333 23-257, biotinylated); experiment: SPR (BIAcore), biotinylated TNFR2 captured on streptavidin chip, antibody as analyte (apparent affinity)
T4 construct: Soluble biotinylated protein captured on a streptavidin chip for SPR; also called HuTNFR2
T4 sequence: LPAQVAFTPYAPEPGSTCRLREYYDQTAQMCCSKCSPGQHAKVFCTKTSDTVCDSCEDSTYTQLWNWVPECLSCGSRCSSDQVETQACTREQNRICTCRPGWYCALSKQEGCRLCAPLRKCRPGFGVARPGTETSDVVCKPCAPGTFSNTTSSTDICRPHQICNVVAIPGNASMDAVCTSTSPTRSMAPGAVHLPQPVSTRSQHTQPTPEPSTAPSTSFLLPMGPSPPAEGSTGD
Protocol: (§1) Increased avidity was confirmed by Surface Plasmon Resonance (SPR) using a BIAcore. Briefly, biotinylated human- or cyno-TNFR2 was captured on the surface of a streptavidin chip for 60 seconds at a flow rate of […]. […] The dissociation phase was then initiated with running buffer (HBS-EP+) injected for 600 seconds at […]. Data were analyzed using the Biacore Evaluation Software.

biotinylated cyno TNFR2 = target: T5, biotinylated cyno TNFR2 (cynomolgus monkey, UniProt P20333 23-257 (human entry), limits assumed, biotinylated); experiment: as above
T5 construct: Soluble biotinylated protein captured on a streptavidin chip for SPR; also called CyTNFR2
T5 chain: T4 sequence with S16G, S36P, P117Q, N164H, E210A, S216G, M223V
Protocol: as §1

Molecule: MR2-1 (Hycult Biotech, ref #HM2007) (antibody)
EC50 Jurkat assay, With aggregates (human TNFR2 (human)): 0.12 µg/mL | EC50 Jurkat assay, Without aggregates (human TNFR2 (human)): 5.75 µg/mL | Loss of potency (without against with aggregates) (human TNFR2 (human)): 50 fold

B1: TetraFab 2209 (antibody, human IgG1, kappa)
heavy: QVQLVQSGAEVKKPGASVKVSCKVSGFSFPSSGVDWVRQAPGQGLEWLGVTWGVGSTHYNQKFQGRVTITKDTSKSTVYMELSSLRSEDTAVYYCASGEWDEGFVYWGQGTLVTVSSASTKGPSVFPLAPSSKSTSGGTAALGCLVKDYFPEPVTVSWNSGALTSGVHTFPAVLQSSGLYSLSSVVTVPSSSLGTQTYICNVNHKPSNTKVDKKVEPKSCGGGGSQVQLVQSGAEVKKPGASVKVSCKVSGFSFPSSGVDWVRQAPGQGLEWLGVTWGVGSTHYNQKFQGRVTITKDTSKSTVYMELSSLRSEDTAVYYCASGEWDEGFVYWGQGTLVTVSSASTKGPSVFPLAPSSKSTSGGTAALGCLVKDYFPEPVTVSWNSGALTSGVHTFPAVLQSSGLYSLSSVVTVPSSSLGTQTYICNVNHKPSNTKVDKKVEPKSCDKTHTCPPCPAPEAAGAPSVFLFPPKPKDTLMISRTPEVTCVVVDVSHEDPEVKFNWYVDGVEVHNAKTKPREEQYNSTYRVVSVLTVLHQDWLNGKEYKCKVSNKALPAPIEKTISKAKGQPREPQVYTLPPSREEMTKNQVSLTCLVKGFYPSDIAVEWESNGQPENNYKTTPPVLDSDGSFFLYSKLTVDKSRWQQGNVFSCSVMHEALHNHYTQKSLSLSPGK
light: DIQLTQSPSFLSASVGDRVTITCKASQNVGTAVAWYQQKPGKAPKLLIYAASTLQSGVPSRFSGSGSGTEFTLTISSLQPEDFATYYCLQYSSYPLTFGGGTKVEIKRTVAAPSVFIFPPSDEQLKSGVTASVVCLLNNFYPREAKVQWKVDNALQSGNSQESVTEQDSKDSTYSLSSTLTLSKADYEKHKVYACEVTHQGLSSPVTKSFNRGEC
notes: TetraFab; parental heavy chain
EC50 (human TNFR2 [1]): 0.15 nM

B2: TetraFab 2206 (antibody, human IgG1, kappa, name in Kabat numbering)
heavy: B1 heavy
light: DIQLTQSPSFLSASVGDRVTITCKASQNVGTAVAWYQQKPGKAPKLLIYAASTLQSGVPSRFSGSGSGTEFTLTISSLQPEDFATYYCQQYNSYPFGGGTKVEIKRTVAAPSVFIFPPSDEQLKSGVTASVVCLLNNFYPREAKVQWKVDNALQSGNSQESVTEQDSKDSTYSLSSTLTLSKADYEKHKVYACEVTHQGLSSPVTKSFNRGEC
notes: as for B1
binding result (human TNFR2 [2]): no binding

B3: TetraFab 2208 (antibody, human IgG1, kappa)
heavy: B1 heavy
light: B1 light with Y91K
notes: as for B1
EC50 (human TNFR2 [1]): 2.3 nM

B4: TetraFab 2053 (antibody, human IgG1, kappa)
heavy: B1 heavy
light: B1 light with L89Q
notes: dual Fab heavy chain (outer VH-CH1, G4S linker, inner VH-CH1, human IgG1 Fc) pairing with 4 light chains; also called TF2053
EC50 (human TNFR2 [1]): 0.7 nM

B10: GBT-TNFR2-1765 (antibody, human IgG2, kappa, V domains shown)
VH: QVQLVQSGAEVKKPGASVKVSCKVSGFSFPSSGVDWVRQAPGQGLEWLGVTWGVGSTHYNQKFQGRVTITKDTSKSTVYMELSSLRSEDTAVYYCASGEWDEGFVYWGQGTLVTVSS
VL: DIQLTQSPSFLSASVGDRVTITCKASQNVGTAVAWYQQKPGKAPKLLIYAASTLQSGVPSRFSGSGSGTEFTLTISSLQPEDFATYYCQQYSSYPLTFGGGTKVEIKR
EC50 (HuPBMC) (human TNFR2 [3]): 1.31 nM | Jurkat EC50 (human TNFR2 [3]): 1.01 µg/mL | EC50 (CyPBMC) (cynomolgus monkey TNFR2 [4]): 13.6 nM | EC50 Jurkat (human TNFR2 [5]): 1.01 µg/mL | EC50 HuPBMC (ICAM-1 up-regulation) (human TNFR2 [6]): 1.31 µg/mL | EC50 CyPBMC (CD25+/Ki67+ of CD4+ cells) (cynomolgus monkey TNFR2 [7]): 13.6 µg/mL | EC50 (human TNFR2 [8]): 1.21 nM | Kd (biotinylated human TNFR2): 0.32 nM | koff (biotinylated human TNFR2): 0.00136 s⁻¹ | kon (biotinylated human TNFR2): 4.2e+06 M⁻¹ s⁻¹ | Kd (biotinylated cyno TNFR2): 2.39 nM | koff (biotinylated cyno TNFR2): 0.00977 s⁻¹ | kon (biotinylated cyno TNFR2): 4.09e+06 M⁻¹ s⁻¹

B11: clone 1774 (antibody, V domains shown)
VH: B10 VH with T73N
VL: DIQLTQSPSFLSASVGDRVTITCKASQNVGTAVAWYQQKPGKAPKLLIYSASNRYTGVPSRFSGSGSGTEFTLTISSLQPEDFATYYCQQYSSYPLTFGGGTKVEIK
EC50 (human TNFR2 [8]): 1.56 nM

Second part, the molecule after the results:

binding result (human TNFR2 [2]): no binding
B5: TetraFab 2113 (antibody)
heavy: B1 heavy with W52R, V54E, W277R, V279E
light: DIQLTQSPSFLSASVGDRVTITCKASQNVGTAVAWYQQKPGKAPKLLIYAASTLQSGVPSRFSGSGSGTEFTLTISSLQPEDFATYYCQQYYSTPFGGGTKVEIKRTVAAPSVFIFPPSDEQLKSGTASVVCLLNNFYPREAKVQWKVDNALQSGNSQESVTEQDSKDSTYSLSSTLTLSKADYEKHKVYACEVTHQGLSSPVTKSFNRGEC
notes: TetraFab

binding result (human TNFR2 [2]): no binding
B6: TetraFab 2118 (antibody)
heavy: B1 heavy with W100H, W325H
light: B5 light
notes: TetraFab

binding result (human TNFR2 [2]): no binding
B7: TetraFab 2125 (antibody)
heavy: B1 heavy with W52R, V54E, W100S, D101T, W277R, V279E, W325S, D326T
light: B5 light
notes: TetraFab

binding result (human TNFR2 [2]): no binding
B8: TetraFab 2207 (antibody, human IgG1, kappa, name in Kabat numbering)
heavy: B1 heavy
light: B2 light with N92Y, Y94T
notes: as for B1

binding result (human TNFR2 [2]): no binding
B9: TetraFab 2112 (antibody)
heavy: B1 heavy with W52K, V54Q, W277K, V279Q
light: B5 light
notes: TetraFab

EC50 (human TNFR2 [8]): 1.13 nM
B12: clone 1773 (antibody, name in Kabat numbering, V domains shown)
VH: B10 VH with T73N
VL: B11 VL with S50A, N53T, R54L, Y55Q, T56S

EC50 (human TNFR2 [8]): 1.19 nM
B13: clone 1766 (antibody, V domains shown)
VH: B10 VH
VL: B11 VL

From patent US20230406951A1 (Pfizer, published 2023)
